# Test system: Escherichia coli TOP10
# Assay: shrunken log2 fold change of peptide-encoding DNA abundance (4.5 h post-induction vs induction); higher = less antimicrobial activity (less host growth inhibition)
# Conditions: time post-induction: 4.5 h; library: site-saturation at positions 5, 18, 19, 20
# 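Also: peptides expressed intracellularly from a pBAD plasmid library in pooled LB shake-flask culture, induced with 0.3% L-arabinose, DNA abundance read by NGS, three biological replicates, DESeq2 with apeglm shrinkage.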
row,Sequence,shrunken log2 fold change
1,RRIRNRPPRLPRPRPRPCKIPRP,-0.00963
2,RRIRWRPPRLPRPRPRPSKHPRP,-0.499
3,RRIRKRPPRLPRPRPRPAHQPRP,0.162
4,RRIRSRPPRLPRPRPRPDEHPRP,-0.125
5,RRIRMRPPRLPRPRPRPWWYPRP,-1.27
6,RRIRCRPPRLPRPRPRPWRNPRP,-0.157
7,RRIRWRPPRLPRPRPRPFSGPRP,0.0272
8,RRIRIRPPRLPRPRPRPCARPRP,0.039
9,RRIRYRPPRLPRPRPRPMICPRP,-0.0731
10,RRIRTRPPRLPRPRPRPNEMPRP,-0.235
11,RRIRIRPPRLPRPRPRPPTNPRP,0.0455
12,RRIRARPPRLPRPRPRPSAWPRP,0.797
13,RRIRHRPPRLPRPRPRPAIMPRP,-0.233
14,RRIRKRPPRLPRPRPRPHQLPRP,0.0824
15,RRIRVRPPRLPRPRPRPHVRPRP,-0.0188
16,RRIRLRPPRLPRPRPRPWPRPRP,0.113
17,RRIRYRPPRLPRPRPRPIRWPRP,-0.114
18,RRIRSRPPRLPRPRPRPYANPRP,-0.185
19,RRIRRRPPRLPRPRPRPEMCPRP,0.11
20,RRIRERPPRLPRPRPRPYEAPRP,-0.59
21,RRIRPRPPRLPRPRPRPWLTPRP,-0.123
22,RRIRQRPPRLPRPRPRPTANPRP,0.197
23,RRIRIRPPRLPRPRPRPCEPPRP,-0.28
24,RRIRIRPPRLPRPRPRPRSKPRP,-0.251
25,RRIRERPPRLPRPRPRPWERPRP,0.0496

row,Sequence,shrunken log2 fold change
1,RRIRPRPPRLPRPRPRPKEEPRP,0.0604
2,RRIRSRPPRLPRPRPRPFHDPRP,-0.204
3,RRIRFRPPRLPRPRPRPHEQPRP,0.0928
4,RRIRLRPPRLPRPRPRPYWKPRP,-0.0713
5,RRIRNRPPRLPRPRPRPCSPPRP,-0.354
6,RRIRDRPPRLPRPRPRPWAPPRP,0.00499
7,RRIRYRPPRLPRPRPRPKTFPRP,-0.251
8,RRIRHRPPRLPRPRPRPLMQPRP,-0.248
9,RRIRDRPPRLPRPRPRPTHGPRP,0.117
10,RRIRVRPPRLPRPRPRPPLRPRP,0.93
11,RRIRKRPPRLPRPRPRPGEKPRP,0.015
12,RRIRYRPPRLPRPRPRPFNVPRP,0.0019
13,RRIRVRPPRLPRPRPRPHIFPRP,-0.547
14,RRIRYRPPRLPRPRPRPDDTPRP,-0.876
15,RRIRARPPRLPRPRPRPTMDPRP,-0.037
16,RRIRGRPPRLPRPRPRPWIVPRP,0.189
17,RRIRNRPPRLPRPRPRPKVTPRP,-0.0149
18,RRIRVRPPRLPRPRPRPIFGPRP,-0.015
19,RRIRARPPRLPRPRPRPCCKPRP,-0.12
20,RRIRCRPPRLPRPRPRPCARPRP,0.174
21,RRIRWRPPRLPRPRPRPSTMPRP,-0.284
22,RRIRLRPPRLPRPRPRPATQPRP,0.00742
23,RRIRIRPPRLPRPRPRPAGFPRP,0.0153
24,RRIRPRPPRLPRPRPRPINNPRP,0.81
25,RRIRIRPPRLPRPRPRPAYCPRP,-0.23

row,Sequence,shrunken log2 fold change
1,RRIRCRPPRLPRPRPRPISHPRP,-0.486
2,RRIRHRPPRLPRPRPRPGPWPRP,0.166
3,RRIRARPPRLPRPRPRPDLLPRP,0.0805
4,RRIRCRPPRLPRPRPRPVVAPRP,0.319
5,RRIRSRPPRLPRPRPRPVQDPRP,0.339
6,RRIRMRPPRLPRPRPRPPDWPRP,1.7
7,RRIRVRPPRLPRPRPRPDMPPRP,-0.264
8,RRIRNRPPRLPRPRPRPDFLPRP,-0.342
9,RRIRLRPPRLPRPRPRPGRRPRP,0.363
10,RRIRWRPPRLPRPRPRPVCCPRP,0.469
11,RRIRLRPPRLPRPRPRPGYSPRP,-0.314
12,RRIRKRPPRLPRPRPRPYVEPRP,-1.51
13,RRIRLRPPRLPRPRPRPFQSPRP,0.0501
14,RRIRARPPRLPRPRPRPSTSPRP,-0.322
15,RRIRVRPPRLPRPRPRPQMCPRP,0.00424
16,RRIRKRPPRLPRPRPRPMLSPRP,-0.227
17,RRIRIRPPRLPRPRPRPQSEPRP,-0.219
18,RRIRDRPPRLPRPRPRPLHAPRP,0.317
19,RRIRWRPPRLPRPRPRPHDMPRP,-0.202
20,RRIRMRPPRLPRPRPRPDCKPRP,-0.0414
21,RRIRQRPPRLPRPRPRPKQGPRP,0.401
22,RRIRSRPPRLPRPRPRPNIGPRP,-0.283
23,RRIRIRPPRLPRPRPRPSTWPRP,-0.481
24,RRIRCRPPRLPRPRPRPVPWPRP,-0.139
25,RRIRGRPPRLPRPRPRPTPNPRP,0.957

row,Sequence,shrunken log2 fold change
1,RRIRQRPPRLPRPRPRPCATPRP,-0.0476
2,RRIRVRPPRLPRPRPRPGMEPRP,0.232
3,RRIRQRPPRLPRPRPRPPAVPRP,0.408
4,RRIRCRPPRLPRPRPRPPWSPRP,0.175
5,RRIRIRPPRLPRPRPRPRTTPRP,-0.25
6,RRIRVRPPRLPRPRPRPMFLPRP,-0.557
7,RRIRFRPPRLPRPRPRPTIFPRP,-0.274
8,RRIRPRPPRLPRPRPRPVKPPRP,-0.14
9,RRIRKRPPRLPRPRPRPHFYPRP,-0.0034
10,RRIRWRPPRLPRPRPRPYHAPRP,-0.295
11,RRIRNRPPRLPRPRPRPQLWPRP,-0.252
12,RRIRTRPPRLPRPRPRPMKCPRP,-0.0722
13,RRIRHRPPRLPRPRPRPPSIPRP,-0.165
14,RRIRTRPPRLPRPRPRPSDVPRP,-0.83
15,RRIRTRPPRLPRPRPRPDLPPRP,0.0603
16,RRIRQRPPRLPRPRPRPVPQPRP,0.0925
17,RRIRDRPPRLPRPRPRPVDQPRP,-0.131
18,RRIRIRPPRLPRPRPRPCKVPRP,-0.513
19,RRIRYRPPRLPRPRPRPFCFPRP,-0.114
20,RRIRKRPPRLPRPRPRPVYTPRP,-0.356
21,RRIRIRPPRLPRPRPRPAAKPRP,0.463
22,RRIRIRPPRLPRPRPRPRGIPRP,-0.0459
23,RRIRRRPPRLPRPRPRPTVMPRP,0.286
24,RRIRTRPPRLPRPRPRPGTQPRP,-0.036
25,RRIRDRPPRLPRPRPRPWHYPRP,-0.225

row,Sequence,shrunken log2 fold change
1,RRIRVRPPRLPRPRPRPETWPRP,0.0351
2,RRIRYRPPRLPRPRPRPFKIPRP,0.0602
3,RRIRERPPRLPRPRPRPKQMPRP,-0.19
4,RRIRGRPPRLPRPRPRPCLCPRP,0.655
5,RRIRVRPPRLPRPRPRPMFGPRP,0.00478
6,RRIRCRPPRLPRPRPRPRTDPRP,0.0321
7,RRIRSRPPRLPRPRPRPHTIPRP,-0.87
8,RRIRARPPRLPRPRPRPEGRPRP,2.11
9,RRIRPRPPRLPRPRPRPQRGPRP,0.251
10,RRIRCRPPRLPRPRPRPQRRPRP,-0.023
11,RRIRNRPPRLPRPRPRPTDQPRP,0.362
12,RRIRMRPPRLPRPRPRPGDPPRP,1.09
13,RRIRHRPPRLPRPRPRPPNWPRP,0.494
14,RRIRDRPPRLPRPRPRPSSCPRP,0.00339
15,RRIRWRPPRLPRPRPRPLFNPRP,-0.711
16,RRIRHRPPRLPRPRPRPPREPRP,0.204
17,RRIRKRPPRLPRPRPRPKFLPRP,0.119
18,RRIRVRPPRLPRPRPRPPMIPRP,-0.523
19,RRIRPRPPRLPRPRPRPDDIPRP,-0.0962
20,RRIRERPPRLPRPRPRPGIYPRP,-0.91
21,RRIRPRPPRLPRPRPRPFYPPRP,-0.854
22,RRIRLRPPRLPRPRPRPQTFPRP,-0.118
23,RRIRQRPPRLPRPRPRPRDLPRP,0.412
24,RRIRSRPPRLPRPRPRPWNQPRP,0.0379
25,RRIRARPPRLPRPRPRPDLDPRP,0.515

row,Sequence,shrunken log2 fold change
1,RRIRLRPPRLPRPRPRPWQIPRP,0.019
2,RRIRTRPPRLPRPRPRPWTAPRP,-0.124
3,RRIRFRPPRLPRPRPRPPHPPRP,0.615
4,RRIRGRPPRLPRPRPRPQCFPRP,0.352
5,RRIRKRPPRLPRPRPRPGMHPRP,0.213
6,RRIRTRPPRLPRPRPRPGCGPRP,0.385
7,RRIRVRPPRLPRPRPRPNNTPRP,-0.418
8,RRIRMRPPRLPRPRPRPYTMPRP,-0.06
9,RRIRGRPPRLPRPRPRPVEEPRP,0.843
10,RRIRSRPPRLPRPRPRPSMFPRP,-0.18
11,RRIRTRPPRLPRPRPRPARWPRP,0.471
12,RRIRARPPRLPRPRPRPYPAPRP,-0.146
13,RRIRWRPPRLPRPRPRPKGHPRP,0.108
14,RRIRFRPPRLPRPRPRPTWVPRP,0.156
15,RRIRNRPPRLPRPRPRPCEQPRP,-0.00776
16,RRIRTRPPRLPRPRPRPKYLPRP,-0.0222
17,RRIRYRPPRLPRPRPRPEYIPRP,-0.348
18,RRIRLRPPRLPRPRPRPTDPPRP,0.187
19,RRIRVRPPRLPRPRPRPQFQPRP,-0.0795
20,RRIRCRPPRLPRPRPRPYRCPRP,-0.282
21,RRIRNRPPRLPRPRPRPTGIPRP,0.0288
22,RRIRMRPPRLPRPRPRPQTEPRP,0.12
23,RRIRNRPPRLPRPRPRPWPRPRP,-0.0347
24,RRIRPRPPRLPRPRPRPNQFPRP,-0.204
25,RRIRSRPPRLPRPRPRPHQPPRP,-0.00655

# From the supplement of paper PMC9112550, “Optimization of the antimicrobial peptide Bac7 by deep mutational scanning” (BMC Biology, 2022)
